In article PMC3092982:
pKd: −log10 of the molar value.

What was measured:
C3d C3d (Homo sapiens) = C3d C3d (Homo sapiens) (UniProt P01024); details: cited from earlier work
[1] = target: Complement factor H (Homo sapiens) (UniProt P08603); details: cited from earlier work
[2] = target: FH fragment SCR-16/20 (human); test: AUC; sedimentation velocity, SCR-16/20 at 0.1 mg/ml, Hepes buffer, 20 °C, c(s) analysis; monomer and dimer peaks across the ZnSO4 titration 0-600 μM

Chain of Complement factor H (P08603 19-1231): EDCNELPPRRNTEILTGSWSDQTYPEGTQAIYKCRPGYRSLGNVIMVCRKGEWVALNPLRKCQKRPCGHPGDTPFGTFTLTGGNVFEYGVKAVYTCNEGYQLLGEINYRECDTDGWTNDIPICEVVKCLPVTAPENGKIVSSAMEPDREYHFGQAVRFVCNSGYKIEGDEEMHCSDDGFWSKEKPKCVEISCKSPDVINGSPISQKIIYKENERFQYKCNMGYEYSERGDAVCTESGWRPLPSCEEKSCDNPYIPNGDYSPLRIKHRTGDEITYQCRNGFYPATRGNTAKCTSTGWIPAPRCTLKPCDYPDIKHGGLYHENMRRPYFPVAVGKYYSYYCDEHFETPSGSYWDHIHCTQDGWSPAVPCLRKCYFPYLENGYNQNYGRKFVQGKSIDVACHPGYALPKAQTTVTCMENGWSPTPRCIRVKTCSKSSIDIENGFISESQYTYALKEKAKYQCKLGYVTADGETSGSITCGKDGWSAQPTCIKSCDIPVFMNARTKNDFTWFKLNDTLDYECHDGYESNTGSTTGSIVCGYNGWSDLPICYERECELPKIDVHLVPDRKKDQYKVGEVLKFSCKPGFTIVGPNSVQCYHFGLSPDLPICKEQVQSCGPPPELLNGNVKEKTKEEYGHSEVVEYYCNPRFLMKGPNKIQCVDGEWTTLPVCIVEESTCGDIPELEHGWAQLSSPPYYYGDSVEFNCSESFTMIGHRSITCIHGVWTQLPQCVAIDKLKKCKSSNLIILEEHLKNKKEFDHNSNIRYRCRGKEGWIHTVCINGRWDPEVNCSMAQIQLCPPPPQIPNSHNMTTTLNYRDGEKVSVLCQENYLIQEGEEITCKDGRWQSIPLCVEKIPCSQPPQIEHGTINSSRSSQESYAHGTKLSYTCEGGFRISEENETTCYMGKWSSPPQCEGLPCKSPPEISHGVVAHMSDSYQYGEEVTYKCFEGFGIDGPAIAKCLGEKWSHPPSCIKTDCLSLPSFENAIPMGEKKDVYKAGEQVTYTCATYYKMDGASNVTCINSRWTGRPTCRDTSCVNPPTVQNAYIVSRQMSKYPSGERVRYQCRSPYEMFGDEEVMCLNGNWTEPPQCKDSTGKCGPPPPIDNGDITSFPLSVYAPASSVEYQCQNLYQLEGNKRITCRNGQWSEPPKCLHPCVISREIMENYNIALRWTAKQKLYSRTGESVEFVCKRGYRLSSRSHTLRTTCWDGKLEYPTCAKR
Chain of C3d C3d (Homo sapiens) (P01024 1002-1303): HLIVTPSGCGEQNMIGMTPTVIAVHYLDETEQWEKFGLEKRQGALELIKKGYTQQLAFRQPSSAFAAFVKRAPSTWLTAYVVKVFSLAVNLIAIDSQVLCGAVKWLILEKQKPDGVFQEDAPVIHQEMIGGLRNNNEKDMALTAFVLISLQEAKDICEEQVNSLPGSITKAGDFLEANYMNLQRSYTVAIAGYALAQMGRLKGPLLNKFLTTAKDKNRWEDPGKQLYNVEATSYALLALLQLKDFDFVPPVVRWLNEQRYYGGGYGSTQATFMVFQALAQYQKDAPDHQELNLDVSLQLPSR
Chain of FH fragment SCR-16/20 (domain or fragment) (P08603 19-1231): as the sequence (P08603 19-1231) above

stoichiometry N [2]	Substance	pKd (C3d C3d (Homo sapiens))	pKd [1]
–	Complement factor H (from UniProt P08603)	5.59	4.55
2	FH fragment SCR-16/20 (domain or fragment)	–	–
